Laboratory results taken from the nanobody polyreactivity screen of Harvey et al. (2022).

Assay: yeast display, Sf9 membrane polyspecificity reagent, FACS + sequencing; frameworks hold sequencing errors
Summary of the method: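 Using colony PCR, genes from sorted yeast display clones were amplified, then sequenced on MiSeq at 2 × 250 and filtered by CDR length. The clones had been stained with 10% biotinylated, detergent-solubilized Sf9 membrane reagent for 1 hour at 4 °C and sorted by FACS into low and high (top ~1%) gates on anti-HA and streptavidin fluorescence. Polyreactivity labels come from the gate of origin.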

| Sequence | polyreactivity (PSR sort gate) |
| --- | --- |
| QVQLVESGGGLVQAGGILRLSCAASGRILDYYAMGWYRQAPGKERELVAAISRSGSDTYYADSVKGRFTISRDNAKNTVYLQMNSLKPEETAVYYCAARWSYRSLARYNYWGQGTQVTVSS | low polyreactivity |
| QVQLVESGGGLVQAGGILRLSCAASGRSFDRNAMGWYRQAPGKERELVATISSGDTTDYADSVKGRFTISRDNATNTVYLQMNSLKPEDTAGYYITIYNYWGQGTQVTVSS | low polyreactivity |
| QVQLVESGGGLVQAGGILRLSCAASGRTLDCNAMGWYRQAPGKERELDAAITVTGSSTYYADSVKGRFTISRDNAKNTVYLQMNSLKPEDTAVYYCAKASGGDVRYSYSYRMDYWGQGTQVTVSS | low polyreactivity |
| QVQLVESGGGLVQAGGILRLSCAASGRTVVSYAMGWYRQQPGKGRELVAVITGGTGNTYYADSVKGRFTISRDNEKNTVYLQMNSLKREDTAVYYCNARGCYYKFRYPLYYWGQGTQVTVSS | high polyreactivity |
| QVQLVESGGGLVQAGGILRLSCAASGSIFAHYTMGWYRKAPGKERELVAAISGSGGSTYYADSVKGRFTISRDNAKNTVYLQMNSLKPEVTAVYYCNKRYRPVGPYDYWGQGTQVTVSS | high polyreactivity |
| QVQLVESGGGLVQAGGILRLSCAASGSIFKYYAMGWYRQAPGKERELVADISFGGDSTYYADSVKGRFTISRDNAKNTVYLQMNSLIPEDTAVYYCAAARYFWFVEYDYWGQGTQVTVSS | low polyreactivity |
| QVQLVESGGGLVQAGGILRLSCAASGSIFWYYARGWYRQARGKEREFVADITFSGGSTYYADSVNGRFTISRDNAKNTVYIQMNSLKPEDTAVYYCARDREPLTPVLGNYWGQGTQVTVSS | low polyreactivity |
| QVQLVESGGGLVQAGGILRLSCAASGSIIHFYAKGGYREAPGKEWELVAAITSGTSTYYADSVKGRFTISRDNAKNTVYLQMNSLKPDDTAVYYCAAEASHSYYNAYPSYCGSDYWGQGTQVTVSS | low polyreactivity |
| QVQLVESGGGLVQAGGILRLSCAASGSILTDNAMGWYRQAPGKERELVAAITSSGNTNYADSVKGRFTISRDNAKNTVFLQMNSLKPEDTAVYYCARDLREWGQGTQVTVSS | low polyreactivity |
| QVQLVESGGGLVQAGGILRLSCAASGSIYGYNAMGSYRQAPGKERELVADITSSGSTYYADSVKGRFTISRDNAKNTVYLQMNSLKPEDTAVYYCAARYFVYYLEVDSWGQGTQVTVSS | low polyreactivity |
| QVQLVESGGGLVQAGGILRLSCAASGSTFDPNVMGWYRQAPGKERELVAAITWSGGSTSYADSVKGRFTISRDNAKNTVYLQMNSLKPEDTAVYYCAADWHSWRWGYYYWGQGTQVTVSS | low polyreactivity |
| QVQLVESGGGLVQAGGILRLSCAASGSTFGRYAMGWYRQAPGKVRELVAAISRRGGSTYYADSVKGRFTISRDNAKKTVYLQMYSLKRQDTAVYYCGADDVRTTGCHFDYWGQGTEVTVSS | high polyreactivity |
| QVQLVESGGGLVQAGGILRLSCAASGSTFPGYAMGWYRQAPGKERELVAAISGNGVITYYADSVKGRFTISRDNAKNTVYLQMNSLKPEDTAVYYCNADRLYWGGYYGLTYWGQGTQVTVSS | low polyreactivity |
| QVQLVESGGGLVQAGGILRLSCAASGSTFWPYAMGWYRQAPGKERELVATNRGGGTSTYYADSVKGRFTISRDNAKNTVYLQMNSLKPEDTAVYYCAARGFFTGSYPGYYYWGLGTQVTVSS | high polyreactivity |
| QVQLVESGGGLVQAGGILRLSCAASGSTFYYNTMGWYRQAPGKERELVAAISWSGGSTYYADSVKGRFTISRDNAKTTVYLQINSLKPEDTAVYYSNKLRHISRTLYGYWGQGTQVTVSS | high polyreactivity |
| QVQLVESGGGLVQAGGILRLSCAASGSTGTYMGSYRQAPGKEREMVAAIDNIGDNTYYADSVKGRFTISRDNAKNTVYLQMNSLKPEDTAVYYCPADFYVYYPWLFEYDYWGQGTQVTVSS | low polyreactivity |
| QVQLVESGGGLVQAGGILRLSCAASGSTLTSNDMGWYRQAPGKERELFADITWSGGDTYYADSVKGRFTISRDNAKYTVYLQMNSLKPEDTAVYYCAAEDPNYRPFAYGIEYDYWGQGTQVTVSS | low polyreactivity |
| QVQLVESGGGLVQAGGILRLSCAASGYILYGYAMGWYTQAPGKERELVAAISNDGSTYYADSVKGRFTISRDNAKNTVYLQMNSLKPEDTAVYYCNADAWRKVPHPGTGGRDYWGQGTQVTVSS | high polyreactivity |
| QVQLVESGGGLVQAGGILRLSCAATGSTFVNNVMGWYRQGPRKESDLFAAISRRATSTRYADSVKGRFTISRDHAKNTVYLQMNSLKPEDTEVYYCAATLYVGVTGYGYWGQGTQVTVSS | high polyreactivity |
| QVQLVESGGGLVQAGGILRLSCAPSGLILKYYAMGWYRQAPGKEREFVAAITRRGGITYYADSVKGRFTISRDNAKNTVYLQMNSLKPEDTAVYYCAADPKLGSLAYWRYSYPLYDYWGQGTQVTVSS | low polyreactivity |
| QVQLVESGGGLVQAGGILRLSCAPSGRTLPPNAMGWYRHAPGKERELFAGSTWSGGSTYYADSVKGRFTISRDNAKNTVYLPMNSLKPEVTAVYYCAASRSFPGYGLYYYWGQGTQVTVSS | low polyreactivity |
| QVQLVESGGGLVQAGGILRLSCASSGITFLTYTMGWYRQAPAKERELVAAISRSGGRTYYADSVKGRFTISRDNEKITVYLLMNSLKPEDTAVYYCDAVSATQDFDYWGQGTQETVSS | high polyreactivity |
